From publication doi:10.1101/2022.03.25.485857
pKi: −log10 of the molar value.

Biological target: human α-thrombin (human)
Assay: enzyme inhibition

Substance	pKi
chimadanin sulfated at both Tyr28 and Tyr31 (natural protein)	10.00
chimadanin with a single sTyr at Tyr28 (natural protein)	9.22
chimadanin with a single sTyr at Tyr31 (natural protein)	8.82
madanin-1 sulfated at both Tyr32 and Tyr35 (natural protein)	9.30
madanin-1 with a single sTyr at Tyr32 (natural protein)	8.89
madanin-1 with a single sTyr at Tyr35 (natural protein)	8.21
wildtype chimadanin (natural protein)	7.89
wildtype madanin-1 (natural protein)	7.80
